Reference: the nanobody polyreactivity screen of Harvey et al. (2022)

Assay: yeast display, Sf9 membrane polyspecificity reagent, FACS + sequencing; frameworks hold sequencing errors
Summary of the method: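 Galactose induction of a Saccharomyces cerevisiae BJ5465 synthetic nanobody display library ran 36–48 hours. The cells were then stained for 1 hour at 4 °C with 10% biotinylated, detergent-solubilized Sf9 membrane reagent, pulled down on streptavidin microbeads and FACS-sorted into low and high (top ~1%) gates on expression and reagent-binding fluorescence. Labels for polyreactivity follow the gate of origin.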

Sequence	polyreactivity (PSR sort gate)
QVQRVESGGGLVQAGGSLRLSCAASGFIFTSNARGWYRPAPGKERELVAASTKSGGSTYYADSVKGRFTISRDNAKNTVYLQMNSLKPEDTAVYYCAAYPTSRYKYEYWGQGTQVTVSS	high polyreactivity
QVQRVESGGGLVQAGGSLRLSCAASGFIITRYSMGWYRQAPGKEREMVAVINSSGGSTYYADSVKGRFTISRDTAKNTVYVQMNSLKPEDTAVYYCNALSRYRIWSYGYWGQGTQVTVSS	high polyreactivity
QVQRVESGGGLVQAGGSLRLSCAASGGTFPQYAMGWDRQSHGKETEFVADITSRGGTTYYADSVKGRFTISRDNAKNTVYLQMNSLKPEDTAVNYCAADNPADWWGLDYWGQGTQVTVSS	low polyreactivity
QVQRVESGGGLVQAGGSLRLSCAASGIIFRGYAMGWYRQAPGKERELVAAITSSGARTYYADSVKGRFTISRDNAKNTVYLQMNSLKPDDTAVYYCNATSSVRRYDSWGQGTQVTVSS	high polyreactivity
QVQRVESGGGLVQAGGSLRLSCAASGRIFLIYAMGWYRPAPGKERELVAGISSGGSTYYADSVKGRFTISRDNAKNTVYLQMNSLKPEDTAVYYCAARRYYYRYLFGRYAYGYWGQGTQVNVSS	low polyreactivity
QVQRVESGGGLVQAGGSLRLSCAASGRIFRYYAMGWYRQAPGKERELVASISRRGGSTNYADSVKGRFTISRDNAKNTVYLQMNSLKPEYTAVYYSNAENWSPRGLYNYWGQGTQVTVSS	high polyreactivity
QVQRVESGGGLVQAGGSLRLSCAASGRIFVNYPIGWYRQAPGKERELVAAITSHGSTSYADSVKGRFTISRDNAKNTVYLQMNSLKPEDTAVYYCANDFFEHSPVSHTYSSSKYDYWGQGTQVTVSS	low polyreactivity
QVQRVESGGGLVQAGGSLRLSCAASGSIFNSNAMGWYRLAHGKERELVAAINWRGGSTYYADSVKGRFTISRDNAKNTVYLQMNSLKPEDSAVYYCAAVGWFHDYYWGQGTQLTVSS	high polyreactivity
QVQRVESGGGLVQAGGSLRLSCAASGSIFSYNAMGWYRQAPGKERELVAAIRASGGDTYYADSVKGRFTISRDNAKNTVYLQMISLKPEDTAVYYCAARTYAHHYASHGYWGQGTQVTVSS	low polyreactivity
QVQRVESGGGLVQAGGSLRLSCAASGSILFHYAMGWYRQAPGKEREMVAAISRRGGSTYYADSVKGRFSISRDNAKNTVYLQMNSLKPEDTAVYYCAKYPSAYVDSDVTYDMDYWGQGTQVTVSS	low polyreactivity
QVQRVESGGGLVQAGGSLRLSCAASGSILGIYGMGWYRQAPGKERELVAAISYSGGSTYYADSVKGRFTISSDNAKNTVYLQMNSLKPEDNAVYYCAADLTRGVSYYVDFYYWGQGTQVTVSS	low polyreactivity
QVQRVESGGGLVQAGGSLRLSCAASGSTFNRNALGWYRPEPGKERELVAAISWRGDSTSYADSVKGRFTITRDNAKNTVYLQMNSLKPEDTAVYNCASAHAYAFYRYWYVPSEYNYWGQGTQVTVSS	low polyreactivity
QVQRVESGGGLVQAGGSLRLSCAGSGRIFVQYAMGWYRQAPGKERELVAAISGSGGRTYYADSVKGRFTISRDNAKNTVYLQMNSLKPEDTAVYYCARRGAYTGRYDYWGQGTQVTVSS	high polyreactivity
QVQRVESGGGLVQAGGSLRLSCAGSGSTFAQNGMGWYRPAPGKERELVAAIRWNGGSTYYADSVKGRFTISRDNAKNTVYLQMNSLKPEDTAVYYCAARHPLYRVQHEDWGQGTQVTVSS	low polyreactivity
QVQRVESGGGLVQAGGSLRLSCAHSGRTFPRYVMGRYRQAPAKERELVAAITSSGGSTYYADSVKGRFTISRDNAKNTVYLQMNSLKPEDTAVYYCAAYARPYSGPYAYRLDYWGQGTQVTVSS	high polyreactivity
QVQRVESGGGLVQAGGSLRLSCSASGRTFGHNTMGRYRQAPGKETEFVAAIDFNGGSTYYADSVKGRFTISRDNAQNTVYLQMNSLKPEDTAVYYCAADIYFYYYGSYDYWGQGTQVTVSS	low polyreactivity

Sequence	polyreactivity (PSR sort gate)
QVQRVESGGGLVQAGGSLRLSSADSGSTLSGYAMGWYRQAPGKERELVATIRITGGRTYYADSVKGRFTISRDNAKNTVYLQMNSLKPEDTAVYYCNVRSRRRVSSYDYWGQGTQVTVSS	high polyreactivity
QVQRVESGGGLVQAVGSLRLSCAPSGIIIPVKAMGWYRQAPGKERELVAAITTGGSTNYADSVKGRFTISRDNAKNNVYLQMNSLKPEDTAVYYCAADTARTRIFDYWGQGTQVTVSS	low polyreactivity
QVQRVESGGGLVQEGGSLSLSCAASGSTYKNAMGWYRQAPGKERELVAAITWSGGTTYYADSVKGRFTISRDNAKNTVYLQINSLKPEDTAVYYCAAEYRWYSRYFNYWGQGTQVTVSS	high polyreactivity
QVQRVETGGGLVQAAGSLRLSCAASGRTFRNYAMGWYRQAPGKERELVAAIRSGVRTYYADSVKGRFTISRDNAKNTVYLQMNSVKPEDTAVYYCAVATGLLYKSHGYCGQGTQVTVSS	low polyreactivity
QVQRVETGGGLVQARGSLRLSCAASGRIFACYTMGWFRQAPGKERELDAAISWNGGRTYYADSVKGRFTISRDNAKNTVYLQMNSLKPEDTAVYYCAAGKTPQKYGGFNYWGQGTQVTVSS	high polyreactivity
QVQVGESGGGLVQAGGSLSLSCAASGSIFPANAMGWYRQAPGKERELVAAITRGGRTYYADSVKGIFTISRDNAKNCVYLQMNSLKPEDTAVYDCAAYVLSKREYYRYDYWGQGTQVTVSS	high polyreactivity
QVQVVESGGALVQAGGSLRLSCAASGRTFDWNAMGWYRQAPGKERELVAAITYSGGGTYYADSVKVRFTISRDHATNTVYLQMNSLKPEDTAVYYCAAGYPGTWSYYYWGQGTQVTVSS	low polyreactivity
QVQVVESGGGFVQAGGSLRLSCAASGRTFAVYAMGWYTQAPGKEREFVATISVSDGSTYYADTVKGRFTISRDNAKNTVYLQMNSLKPEDTAVYYCAAQRWTVKYNYWGQGTQVTVSS	high polyreactivity
QVQVVESGGGFVQAGGSLRLSCAASGRTFRYYAMGWYRQAPGKERELVAVISSSDSTNYADSVKGRFTISRDNAKNTVNLQMNSLKPEDTGVYYCAKVYRVIRPYGYWGQGTQVTVSS	high polyreactivity
QVQVVESGGGIVQAGGSLRLSCAASGSIFETYAMGWYRQAPGKESELVAAISRTSGRTYYADSVKGRFTISRDNAMNSVYLQMNSLKPDDTAVYYCAAVVRNPGTYDYWGQGTQVTVSS	high polyreactivity
QVQVVESGGGLDQAGGSLGLSCAASGSIFIKYAMGWSRQAPRKERELVAAISRRGGSPYYADSVKGRFTISRDNAKNTVYLQMISLKPEDTAVYYCAAVNISFGYADRFYYVYRGDYWGQGTQVTVSS	high polyreactivity
QVQVVESGGGLLQAGVSLRLSCAASGRTFSKYDMGLYRQPPGKERELVAAITRTGSSTYYADSVKGRFTISRDNAKNTVYLQMNSLKPEDTAVYYCAADRYLRYSGSSSDYGYWVQGTQVTVSS	low polyreactivity
QVQVVESGGGLVQAGCSLRLSCAASGFTFRDYAMGWYRPAPGKERELVATITLRVGSTFYADSLKGRFTISRDNAKNTVYLQKNSLKPEDTAVYYCADEDSNVVAYDYWGQGTQVTVSS	low polyreactivity
QVQVVESGGGLVQAGGSHRLSCAASGSTFIRYPMGWYRQAPGKERELVAAITWSGGSTYYADSVKGRFTISRDNAKNTVYLQMNSLKPEDTAFYYCAARGPSLSNYRGRMYYWGQGTQVTVSS	high polyreactivity
QVQVVESGGGLVQAGGSLGLSCAASGSTFTRNAMGWYRQAPGKERELVAAITSSGGSTYYADSVKGRFTISRDNAKNTVYLLMNSLKPEDTAVYYCAAYVRPSYFGWMDYWGQGTQVTVSS	low polyreactivity
